According to publication PMC9482650, “Quantitative fragmentomics allow affinity mapping of interactomes” (Nature Communications, 2022):

T1: SNTG1, Q9NSN8
T1 sequence (Q9NSN8 52-150, limits assumed, looked up): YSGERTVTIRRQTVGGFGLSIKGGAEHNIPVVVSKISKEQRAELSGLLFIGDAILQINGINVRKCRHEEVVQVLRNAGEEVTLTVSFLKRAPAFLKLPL

T2: HTRA4, P83105
T2 sequence (P83105 378-476, limits assumed, looked up): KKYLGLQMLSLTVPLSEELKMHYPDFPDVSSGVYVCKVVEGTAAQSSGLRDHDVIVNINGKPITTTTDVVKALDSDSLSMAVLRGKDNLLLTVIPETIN

T3: SYNJ2BP, P57105
T3 sequence (P57105 8-110, limits assumed, looked up): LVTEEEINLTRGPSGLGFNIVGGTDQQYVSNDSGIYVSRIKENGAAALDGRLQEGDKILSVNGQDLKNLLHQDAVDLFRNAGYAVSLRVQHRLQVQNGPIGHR

T4: PARD3B_1, Q8TEW8
T4 sequence (Q8TEW8 196-299, limits assumed, looked up): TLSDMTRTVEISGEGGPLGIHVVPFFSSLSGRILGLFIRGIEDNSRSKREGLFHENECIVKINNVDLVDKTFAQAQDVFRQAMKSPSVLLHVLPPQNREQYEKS

T5: SIPA1L2, Q9P2F8
T5 sequence (Q9P2F8 945-1036, limits assumed, looked up): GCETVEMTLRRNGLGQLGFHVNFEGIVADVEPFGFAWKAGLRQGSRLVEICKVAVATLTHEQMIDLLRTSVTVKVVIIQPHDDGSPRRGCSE

T6: ARHGEF11, O15085
T6 sequence (O15085 42-136, limits assumed, looked up): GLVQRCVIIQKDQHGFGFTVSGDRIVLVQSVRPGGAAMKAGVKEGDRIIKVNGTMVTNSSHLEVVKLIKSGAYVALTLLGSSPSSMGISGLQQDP

T7: PCLO, Q9Y6V0
T7 sequence (Q9Y6V0 4491-4600, limits assumed, looked up): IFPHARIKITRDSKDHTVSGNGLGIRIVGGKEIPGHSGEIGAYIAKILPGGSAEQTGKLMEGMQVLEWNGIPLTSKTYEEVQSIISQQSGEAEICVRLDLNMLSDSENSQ

T8: LNX2_3, Q8N448
T8 sequence (Q8N448 463-564, limits assumed, looked up): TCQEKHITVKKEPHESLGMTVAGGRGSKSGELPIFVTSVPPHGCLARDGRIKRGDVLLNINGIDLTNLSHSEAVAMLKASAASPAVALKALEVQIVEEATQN

T9: HTRA3, P83110
T9 sequence (P83110 354-453, limits assumed, looked up): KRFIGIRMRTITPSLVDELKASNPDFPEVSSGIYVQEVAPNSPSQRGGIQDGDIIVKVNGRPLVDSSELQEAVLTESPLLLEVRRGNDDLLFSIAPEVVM

T10: MPP7, Q5T2T1
T10 sequence (Q5T2T1 134-230, limits assumed, looked up): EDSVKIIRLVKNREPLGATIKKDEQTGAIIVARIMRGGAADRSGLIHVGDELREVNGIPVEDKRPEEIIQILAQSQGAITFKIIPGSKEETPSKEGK

T11: SNTG2, Q9NY99
T11 sequence (Q9NY99 68-166, limits assumed, looked up): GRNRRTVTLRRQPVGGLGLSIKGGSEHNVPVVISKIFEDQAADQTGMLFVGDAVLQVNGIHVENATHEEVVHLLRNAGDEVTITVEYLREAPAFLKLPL

T12: SNTA1, Q13424
T12 sequence (Q13424 82-180, limits assumed, looked up): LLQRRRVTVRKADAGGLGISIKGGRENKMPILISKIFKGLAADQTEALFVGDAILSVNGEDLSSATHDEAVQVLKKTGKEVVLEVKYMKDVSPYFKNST


Columns and labels:
Experiment in all cases: holdup assay
Parameters in all cases: key: below the threshold = too weak to quantify, mostly under pKd 3.1 to 4
Conditions in all cases: plain residues with an end cap or a label only (N-terminal biotin on a linker: ado-ado)
ARHGEF12, Q9NZN5-2 = molecular target: ARHGEF12, Q9NZN5-2
Chain of ARHGEF12, Q9NZN5-2 (Q9NZN5 other isoform, or with tags, fused parts or gaps): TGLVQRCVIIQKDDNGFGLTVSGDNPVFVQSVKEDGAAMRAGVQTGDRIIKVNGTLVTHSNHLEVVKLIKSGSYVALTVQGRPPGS

SNTG1, Q9NSN8 = molecular target: T1, SNTG1, Q9NSN8
HTRA4, P83105 = molecular target: T2, HTRA4, P83105
SYNJ2BP, P57105 = molecular target: T3, SYNJ2BP, P57105
PARD3B_1, Q8TEW8 = molecular target: T4, PARD3B_1, Q8TEW8
IL16_1, Q14005 = molecular target: IL16_1, Q14005
Chain of IL16_1, Q14005 (Q14005 210-306): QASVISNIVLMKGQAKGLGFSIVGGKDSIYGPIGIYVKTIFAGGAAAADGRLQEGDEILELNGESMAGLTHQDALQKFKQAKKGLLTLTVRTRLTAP

NHERF2_2, Q15599 = molecular target: NHERF2_2, Q15599
Chain of NHERF2_2, Q15599 (Q15599 142-238): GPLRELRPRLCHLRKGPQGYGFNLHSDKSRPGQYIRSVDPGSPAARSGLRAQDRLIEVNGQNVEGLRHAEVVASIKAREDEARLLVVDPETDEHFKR

MAGI2_5, Q86UL8 = molecular target: MAGI2_5, Q86UL8
Chain of MAGI2_5, Q86UL8 (Q86UL8 915-1017): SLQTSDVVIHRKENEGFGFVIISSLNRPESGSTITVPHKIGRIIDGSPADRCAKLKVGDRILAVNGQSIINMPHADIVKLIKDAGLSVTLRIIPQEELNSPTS

SIPA1L2, Q9P2F8 = molecular target: T5, SIPA1L2, Q9P2F8
Inadl_3, Q8NI35 = molecular target: Inadl_3, Q8NI35
Chain of Inadl_3, Q8NI35 (Q8NI35 359-469): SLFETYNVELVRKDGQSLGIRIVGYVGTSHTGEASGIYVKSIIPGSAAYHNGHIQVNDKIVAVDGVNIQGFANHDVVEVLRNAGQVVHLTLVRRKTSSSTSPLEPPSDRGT

ARHGEF11, O15085 = molecular target: T6, ARHGEF11, O15085
PARD3_3, Q8TEW0 = molecular target: PARD3_3, Q8TEW0
Chain of PARD3_3, Q8TEW0 (Q8TEW0 582-685): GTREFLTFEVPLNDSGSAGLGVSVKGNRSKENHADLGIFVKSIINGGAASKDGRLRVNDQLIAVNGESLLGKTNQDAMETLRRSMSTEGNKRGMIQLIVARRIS

PCLO, Q9Y6V0 = molecular target: T7, PCLO, Q9Y6V0
Inadl_9, Q8NI35 = molecular target: Inadl_9, Q8NI35
Chain of Inadl_9, Q8NI35 (Q8NI35 1530-1615): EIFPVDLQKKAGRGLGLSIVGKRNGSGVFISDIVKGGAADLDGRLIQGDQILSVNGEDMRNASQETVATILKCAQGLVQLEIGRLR

SCRIB_2, Q14160 = molecular target: SCRIB_2, Q14160
Chain of SCRIB_2, Q14160 (Q14160 857-960): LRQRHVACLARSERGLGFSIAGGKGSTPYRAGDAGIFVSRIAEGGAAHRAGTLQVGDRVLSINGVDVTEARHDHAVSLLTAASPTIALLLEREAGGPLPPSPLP

LNX2_3, Q8N448 = molecular target: T8, LNX2_3, Q8N448
NHERF4_1, Q86UT5-2 = molecular target: NHERF4_1, Q86UT5-2
Chain of NHERF4_1, Q86UT5-2 (Q86UT5 other isoform, or with tags, fused parts or gaps): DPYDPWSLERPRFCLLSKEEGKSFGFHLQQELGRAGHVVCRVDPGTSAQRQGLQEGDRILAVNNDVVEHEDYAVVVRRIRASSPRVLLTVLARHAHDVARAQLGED

Inadl_4, Q8NI35 = molecular target: Inadl_4, Q8NI35
Chain of Inadl_4, Q8NI35 (Q8NI35 547-651): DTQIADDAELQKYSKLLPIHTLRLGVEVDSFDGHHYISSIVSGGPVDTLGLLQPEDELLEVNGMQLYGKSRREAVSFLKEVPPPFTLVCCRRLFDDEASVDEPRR

HTRA3, P83110 = molecular target: T9, HTRA3, P83110
MAST1, Q9Y2H9 = molecular target: MAST1, Q9Y2H9
Chain of MAST1, Q9Y2H9 (Q9Y2H9 962-1065): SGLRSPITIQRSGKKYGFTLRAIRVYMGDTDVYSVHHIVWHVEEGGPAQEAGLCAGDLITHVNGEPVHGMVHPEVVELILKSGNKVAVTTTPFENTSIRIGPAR

MPP7, Q5T2T1 = molecular target: T10, MPP7, Q5T2T1
SNTG2, Q9NY99 = molecular target: T11, SNTG2, Q9NY99
SNTA1, Q13424 = molecular target: T12, SNTA1, Q13424
TJP1_2, Q07157 = molecular target: TJP1_2, Q07157
Chain of TJP1_2, Q07157 (Q07157 181-274): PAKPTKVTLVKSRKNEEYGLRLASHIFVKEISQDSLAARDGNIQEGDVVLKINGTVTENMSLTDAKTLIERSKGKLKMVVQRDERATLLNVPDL

DLG2_2, Q15700 = molecular target: DLG2_2, Q15700
Chain of DLG2_2, Q15700 (Q15700 189-283): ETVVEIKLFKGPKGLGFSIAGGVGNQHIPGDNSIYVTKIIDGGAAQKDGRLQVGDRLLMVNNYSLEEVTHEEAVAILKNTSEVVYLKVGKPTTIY

NOS1, P29475 = molecular target: NOS1, P29475
Chain of NOS1, P29475 (P29475 9-101): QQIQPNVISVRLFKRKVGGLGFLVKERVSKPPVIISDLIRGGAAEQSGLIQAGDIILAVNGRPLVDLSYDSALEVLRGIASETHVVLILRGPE

pKd (ARHGEF12, Q9NZN5-2) | pKd (SNTG1, Q9NSN8) | pKd (HTRA4, P83105) | pKd (SYNJ2BP, P57105) | pKd (PARD3B_1, Q8TEW8) | pKd (IL16_1, Q14005) | pKd (NHERF2_2, Q15599) | pKd (MAGI2_5, Q86UL8) | pKd (SIPA1L2, Q9P2F8) | pKd (Inadl_3, Q8NI35) | pKd (ARHGEF11, O15085) | pKd (PARD3_3, Q8TEW0) | pKd (PCLO, Q9Y6V0) | pKd (Inadl_9, Q8NI35) | pKd (SCRIB_2, Q14160) | pKd (LNX2_3, Q8N448) | pKd (NHERF4_1, Q86UT5-2) | pKd (Inadl_4, Q8NI35) | pKd (HTRA3, P83110) | pKd (MAST1, Q9Y2H9) | other results | Binder
3.63 | below the threshold | below the threshold | 3.52 | below the threshold | below the threshold | below the threshold | below the threshold | below the threshold | below the threshold | below the threshold | below the threshold | below the threshold | below the threshold | below the threshold | below the threshold | 3.59 | below the threshold | below the threshold | 3.86 | pKd (MPP7, Q5T2T1): below the threshold; pKd (SNTG2, Q9NY99): below the threshold; pKd (SNTA1, Q13424): below the threshold; pKd (TJP1_2, Q07157): below the threshold; pKd (DLG2_2, Q15700): below the threshold; pKd (NOS1, P29475): below the threshold | EALLQMESVA [CAVIN3, Q969G5]
3.64 | below the threshold | below the threshold | below the threshold | 4.74 | below the threshold | 3.64 | below the threshold | below the threshold | below the threshold | below the threshold | below the threshold | below the threshold | below the threshold | below the threshold | below the threshold | 3.81 | below the threshold | below the threshold | 3.95 | pKd (MPP7, Q5T2T1): below the threshold; pKd (SNTG2, Q9NY99): below the threshold; pKd (SNTA1, Q13424): below the threshold; pKd (TJP1_2, Q07157): below the threshold; pKd (DLG2_2, Q15700): below the threshold; pKd (NOS1, P29475): 3.56 | EKKTLIGIKL [GOT1L1, Q8NHS2]
4.66 | below the threshold | below the threshold | 3.76 | 3.71 | below the threshold | 4.44 | below the threshold | below the threshold | below the threshold | 3.74 | below the threshold | below the threshold | below the threshold | below the threshold | below the threshold | 3.96 | below the threshold | below the threshold | 4.65 | pKd (MPP7, Q5T2T1): below the threshold; pKd (SNTG2, Q9NY99): below the threshold; pKd (SNTA1, Q13424): below the threshold; pKd (TJP1_2, Q07157): below the threshold; pKd (DLG2_2, Q15700): below the threshold; pKd (NOS1, P29475): below the threshold | SARSRLSSNL [HCN2, Q9UL51]
3.5 | below the threshold | below the threshold | below the threshold | below the threshold | below the threshold | 3.91 | below the threshold | below the threshold | below the threshold | below the threshold | below the threshold | below the threshold | below the threshold | below the threshold | below the threshold | 3.76 | below the threshold | below the threshold | 3.63 | pKd (MPP7, Q5T2T1): below the threshold; pKd (SNTG2, Q9NY99): below the threshold; pKd (SNTA1, Q13424): below the threshold; pKd (TJP1_2, Q07157): below the threshold; pKd (DLG2_2, Q15700): below the threshold; pKd (NOS1, P29475): below the threshold | IKAIVDLTGL [TRAF2, Q12933]
